Source: patent US9499613B2, “Notch1 receptor binding agents and methods of use thereof” (OncoMed Pharmaceuticals, Inc., priority 2008, dated 2016)
“Also recorded” adds a separate entry of the source.

Assays:
Notch1 [1] = biological target: T1, Notch1 (Homo sapiens, UniProt P46531); test: ELISA of conditioned media from cotransfected HEK 293 cells for Notch1 binding activity; settings: candidate humanized chains cotransfected into HEK 293 cells
Procedure: The functionality of each candidate variant humanized heavy and light chain was tested by cotransfection into mammalian cells. Each of the nine candidate humanized 52M51 heavy chains described above was cotransfected into HEK 293 cells with the murine 52M51 light chain cDNA, and conditioned media was assayed by ELISA for Notch1 binding activity. […] This variant “52M51-H4” (SEQ ID NO:22) contains, in addition to murine CDRs, variation at 3 framework positions within the Vh framework, Kabat positions 20, 48, and 71 in comparison with an example human framework (e.g. IGHV1-24). The 52M51-H4 humanized heavy chain was then cotransfected into HEK293 cells with each of the eight candidate humanized light chains, and conditioned media was again assayed for antigen binding by ELISA. […] Variant 52M51-L3 contains, in addition to murine CDRs, variation at 1 framework position at Kabat position 49 in comparison to an example human framework (e.g., IGLV7-46). Two humanized variant antibodies, 52M51H4L3 and 52M51H4L4, were developed. 52M51H4L3, as encoded by DNA deposited with the ATCC, under the conditions of the Budapest Treaty on Oct. 15, 2008, and assigned designation number PTA-9549.

C8 colon tumor cells = test: C8 colon tumor xenograft, treatment of established tumors; type: in vivo, NOD/SCID mice; settings: C8 colon tumors ~210 mm^3 at start, 10 mg/kg i.p. twice a week
Procedure: Tumor cells from a patient sample (solid tumor biopsy or pleural effusion) that have been passaged as a xenograft in mice were prepared for repassaging into experimental animals. Tumor tissue was removed, cut up into small pieces, minced completely using sterile blades, and single cell suspensions obtained by enzymatic digestion and mechanical disruption. Dissociated tumor cells were then injected subcutaneously into the mammary fat pads, for breast tumors, or into the flank, for non-breast tumors, of NOD/SCID mice to elicit tumor growth. In certain embodiments, ESA+, CD44+, CD24−/low, Lin− tumorigenic tumor cells are isolated as described in detail above and injected.
In certain embodiments, freshly isolated C8 colon tumor cells (225 cells per animal) were implanted subcutaneously into NOD/SCID mice. Following tumor cell injection, animals were monitored for tumor growth. Tumors were allowed to grow for 48 days until they reached an average size of approximately 210 mm^3 and randomized into two groups (n=10 per group). The animals were treated with either control antibody or antibody that binds to the membrane proximal region of the extracellular domain of human Notch1, 52M51, (10 mg/kg) dosed i.p. twice a week. Tumor size was assessed on days 55, 57, and 62.

Notch1 [2] = biological target: T1, Notch1; test: Western blot of Notch1 ICD formation after DLL4 stimulation of Notch1-Hela cells; type: cell-based; parameters: expressed in transfected cells; host or cells: HeLa (Notch1-Hela); settings: DLL4-fc coated wells, five hours
Procedure: Cleavage of Notch receptors by furin, ADAM, and gamma-secretase results in formation of the Notch intracellular domain (ICD) that then triggers downstream Notch signaling in the nucleus. In certain embodiments, the ability of Notch1 receptor antibodies to block ligand-mediated receptor activation was determined by Western blot analysis. Notch1-Hela cells were grown in suspension culture in 293-SMII media (Gibco). Cultured cells were transferred to 96-well plates in which select wells had been pre-coated with human DLL4-fc fusion protein ([…]) in DMEM plus 2% FBS and 1 μM MG132 (Calbiochem). Antibodies to generated against a membrane proximal region of the extracellular domain of human Notch1 were added to the cell culture medium, and cells were incubated at 37° C. for five hours. Wells were then aspirated and the cells resuspended in 2×SDS running buffer. Samples were sonicated at room temperature, and then subjected to SDS-PAGE and western blot analysis using an antibody specific for the cleaved Notch1 ICD according to the manufacturer's recommendations (Cell Signaling Technology).

Notch1 [3] = biological target: T1, Notch1; test: hDLL4-fc-induced Notch reporter luciferase assay in Notch1-Hela cells; type: cell-based; parameters: expressed in transfected cells; host or cells: HeLa (Notch1-Hela); settings: plates coated with 200 ng/well hDLL4-fc, 48 hours after transfection
Procedure: In certain embodiments, the ability of Notch1 receptor antibodies to block ligand-mediated Notch signaling was determined. In certain embodiments, HeLa cells engineered to overexpress Notch1 (Notch1-Hela) cultured in DMEM supplemented with antibiotics and 10% FCS were co-transfected with 1) pGL4 8×CBS firefly luciferase containing a Notch responsive promoter upstream of a firefly luciferase reporter gene to measure Notch signaling levels in response to DLL4 ligand; and 2) a Renilla luciferase reporter (Promega; Madison, Wis.) as an internal control for transfection efficiency. Transfected cells were added to cultures plates coated overnight with 200 ng/well of hDLL4-fc protein, and antibodies to Notch1 were then added to the cell culture medium. Forty-eight hours following transfection, luciferase levels were measured using a dual luciferase assay kit (Promega; Madison, Wis.) with firefly luciferase activity normalized to Renilla luciferase activity. The ability of antibodies to inhibit Notch1 pathway activation was thus determined.

T1 sequence (P46531 19-2555): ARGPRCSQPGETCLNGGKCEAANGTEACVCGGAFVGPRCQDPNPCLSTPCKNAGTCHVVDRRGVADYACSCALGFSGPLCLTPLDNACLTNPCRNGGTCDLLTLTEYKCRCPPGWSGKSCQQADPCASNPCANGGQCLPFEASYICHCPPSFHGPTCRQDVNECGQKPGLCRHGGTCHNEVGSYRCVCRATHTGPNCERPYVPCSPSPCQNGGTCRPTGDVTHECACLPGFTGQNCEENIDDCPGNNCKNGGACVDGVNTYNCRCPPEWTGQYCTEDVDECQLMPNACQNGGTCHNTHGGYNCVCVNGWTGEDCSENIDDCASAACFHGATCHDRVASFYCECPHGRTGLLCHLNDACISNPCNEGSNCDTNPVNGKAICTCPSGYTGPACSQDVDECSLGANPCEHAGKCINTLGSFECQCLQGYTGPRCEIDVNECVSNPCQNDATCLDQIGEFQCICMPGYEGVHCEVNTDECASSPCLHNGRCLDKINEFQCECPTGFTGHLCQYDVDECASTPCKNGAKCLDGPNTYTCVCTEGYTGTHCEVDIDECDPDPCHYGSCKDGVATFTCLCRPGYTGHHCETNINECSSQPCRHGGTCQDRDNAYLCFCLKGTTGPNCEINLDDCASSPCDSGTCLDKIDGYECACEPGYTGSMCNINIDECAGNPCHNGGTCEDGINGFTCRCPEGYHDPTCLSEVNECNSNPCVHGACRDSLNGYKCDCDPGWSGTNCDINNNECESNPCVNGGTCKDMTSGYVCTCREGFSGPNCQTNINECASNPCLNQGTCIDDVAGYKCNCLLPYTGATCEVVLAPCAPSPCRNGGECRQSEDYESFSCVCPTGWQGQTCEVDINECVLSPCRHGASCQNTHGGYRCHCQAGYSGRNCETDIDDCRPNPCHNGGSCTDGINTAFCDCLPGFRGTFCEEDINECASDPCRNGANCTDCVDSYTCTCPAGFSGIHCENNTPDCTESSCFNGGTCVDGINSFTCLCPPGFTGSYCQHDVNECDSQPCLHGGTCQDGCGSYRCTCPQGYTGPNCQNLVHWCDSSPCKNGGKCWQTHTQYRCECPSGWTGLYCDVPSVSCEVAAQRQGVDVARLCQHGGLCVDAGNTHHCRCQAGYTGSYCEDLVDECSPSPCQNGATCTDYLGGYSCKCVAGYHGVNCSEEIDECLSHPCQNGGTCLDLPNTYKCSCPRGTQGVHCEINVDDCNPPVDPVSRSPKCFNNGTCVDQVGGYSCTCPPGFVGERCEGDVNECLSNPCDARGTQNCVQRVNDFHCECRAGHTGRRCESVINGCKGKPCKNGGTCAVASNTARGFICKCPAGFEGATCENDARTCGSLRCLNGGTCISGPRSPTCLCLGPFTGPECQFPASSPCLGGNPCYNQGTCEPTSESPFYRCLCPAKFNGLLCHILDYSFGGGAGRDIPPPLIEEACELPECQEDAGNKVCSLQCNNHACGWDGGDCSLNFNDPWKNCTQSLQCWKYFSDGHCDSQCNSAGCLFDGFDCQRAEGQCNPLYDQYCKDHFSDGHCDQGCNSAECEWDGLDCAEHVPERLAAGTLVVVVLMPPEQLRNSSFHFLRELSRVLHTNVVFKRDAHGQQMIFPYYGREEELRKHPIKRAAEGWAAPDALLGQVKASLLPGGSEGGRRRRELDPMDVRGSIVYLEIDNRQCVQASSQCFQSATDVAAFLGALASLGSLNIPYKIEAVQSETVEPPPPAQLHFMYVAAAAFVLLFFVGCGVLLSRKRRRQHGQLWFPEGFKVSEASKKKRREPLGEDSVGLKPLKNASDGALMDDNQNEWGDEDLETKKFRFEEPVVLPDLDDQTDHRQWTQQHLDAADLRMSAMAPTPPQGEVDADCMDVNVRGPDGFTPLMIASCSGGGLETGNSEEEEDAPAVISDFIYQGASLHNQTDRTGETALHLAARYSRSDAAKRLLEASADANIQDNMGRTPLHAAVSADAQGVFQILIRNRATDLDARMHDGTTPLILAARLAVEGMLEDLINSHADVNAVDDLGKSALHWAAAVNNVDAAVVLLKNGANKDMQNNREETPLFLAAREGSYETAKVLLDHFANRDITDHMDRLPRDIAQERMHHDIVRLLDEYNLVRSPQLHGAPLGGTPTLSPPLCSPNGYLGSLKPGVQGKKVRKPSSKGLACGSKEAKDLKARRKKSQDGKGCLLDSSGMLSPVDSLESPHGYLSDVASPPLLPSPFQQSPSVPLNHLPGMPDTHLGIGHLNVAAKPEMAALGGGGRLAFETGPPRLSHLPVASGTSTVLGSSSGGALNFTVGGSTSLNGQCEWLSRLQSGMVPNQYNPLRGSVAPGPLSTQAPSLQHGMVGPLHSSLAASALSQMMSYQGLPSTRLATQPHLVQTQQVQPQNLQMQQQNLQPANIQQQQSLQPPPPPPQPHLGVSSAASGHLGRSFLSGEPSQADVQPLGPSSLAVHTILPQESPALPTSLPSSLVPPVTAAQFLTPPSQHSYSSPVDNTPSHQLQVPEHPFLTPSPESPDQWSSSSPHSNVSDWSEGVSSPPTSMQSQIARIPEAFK

B1: 52M51-H4: humanized 52M51 heavy chain variant (SEQ ID NO:22), tested with the murine 52M51 light chain (antibody)
heavy: QVQLVQSGAEVKKPGASVKISCKVSGYTLRGYWIEWVRQAPGKGLEWIGQILPGTGRTNYNEKFKGRVTMTADTSTDTAYMELSSLRSEDTAVYYCARFDGNYGYYAMDYWGQGTTVTVSSASTKGPSVFPLAPCSRSTSESTAALGCLVKDYFPEPVTVSWNSGALTSGVHTFPAVLQSSGLYSLSSVVTVPSSNFGTQTYTCNVDHKPSNTKVDKTVERKCCVECPPCPAPPVAGPSVFLFPPKPKDTLMISRTPEVTCVVVDVSHEDPEVQFNWYVDGVEVHNAKTKPREEQFNSTFRVVSVLTVVHQDWLNGKEYKCKVSNKGLPAPIEKTISKTKGQPREPQVYTLPPSREEMTKNQVSLTCLVKGFYPSDIAVEWESNGQPENNYKTTPPMLDSDGSFFLYSKLTVDKSRWQQGNVFSCSVMHEALHNHYTQKSLSLSPGK
light: QAVVTQESALTTSPGETVTLTCRSSTGAVTTSNYANWVQEKPDHLFTGLIGGTNNRAPGVPARFSGSLIGDKAALTITGAQTEDEAIYFCALWYSNHWVFGGGTKLTVLGQPKSSPSVTLFPPSSEELETNKATLVCTITDFYPGVVTVDWKVDGTPVTQGMETTQPSKQSNNKYMASSYLTLTARAWERHSSYSCQVTHEGHTVEKSLSRADCS
**Q.** With B1 as the molecule, how does the “Notch1 / antigen binding by ELISA” value (Notch1 [1]) read?
**A.** most robust binding

B2: 52M51: murine monoclonal antibody to membrane proximal region of human Notch1; hybridoma ATCC PTA-9405; heavy SEQ ID NO:10, light SEQ ID NO:4 (antibody)
heavy: MEWTWVFLFLLSVTAGVHSQVQLQQSGAELMKPGASVKISCKAAGYTMRGYWIEWIKQRPGHGLEWIGQILPGTGRTNYNEKFKGKATFTADTSSNTANMQLSSLTSEDSAVYYCARFDGNYGYYAMDYWGQGSSVTVSSAKTTPPSVYPLAPGSAAQTNSMVTLGCLVKGYFPEPVTVTWNSGSLSSGVHTFPAVLQSDLYTLSSSVTVPSSPRPSETVTCNVAHPASSTKVDKKIVPRDCGCKPCICTVPEVSSVFIFPPKPKDVLTITLTPKVTCVVVDISKDDPEVQFSWFVDDVEVHTAQTQPREEQFNSTFRSVSELPIMHQDWLNGKEFKCRVNSAAFPAPIEKTISKTKGRPKAPQVYTIPPPKEQMAKDKVSLTCMITDFFPEDITVEWQWNGQPAENYKNTQPIMNTNGSYFVYSKLNVQKSNWEAGNTFTCSVLHEGLHNHHTEKSLSHSPGK
light: MAWISLILSLLALSSGAISQAVVTQESALTTSPGETVTLTCRSSTGAVTTSNYANWVQEKPDHLFTGLIGGTNNRAPGVPARFSGSLIGDKAALTITGAQTEDEAIYFCALWYSNHWVFGGGTKLTVLGQPKSSPSVTLFPPSSEELETNKATLVCTITDFYPGVVTVDWKVDGTPVTQGMETTQPSKQSNNKYMASSYLTLTARAWERHSSYSCQVTHEGHTVEKSLSRADCS
modifications: Synthetic heavy chain of antibody 52M51; Synthetic light chain of antibody 52M51
**Q.** B2 was tested. Which “tumor growth compared to control antibody” value (C8 colon tumor cells) did it give?
**A.** statistically significant (p=0.0006) inhibition of tumor growth; also recorded: significantly (p=0.0006) inhibited tumor growth

**Q.** And the “Notch1 ICD formation after ligand stimulation” value (Notch1 [2])?
**A.** significantly inhibited the generation of ICD; also recorded: reduce ICD formation to background levels

B3: 52M51H4L3: humanized variant of 52M51, heavy chain H4 and light chain L3; DNA deposited as ATCC PTA-9549 (antibody)
heavy: QVQLVQSGAEVKKPGASVKISCKVSGYTLRGYWIEWVRQAPGKGLEWIGQILPGTGRTNYNEKFKGRVTMTADTSTDTAYMELSSLRSEDTAVYYCARFDGNYGYYAMDYWGQGTTVTVSSASTKGPSVFPLAPCSRSTSESTAALGCLVKDYFPEPVTVSWNSGALTSGVHTFPAVLQSSGLYSLSSVVTVPSSNFGTQTYTCNVDHKPSNTKVDKTVERKCCVECPPCPAPPVAGPSVFLFPPKPKDTLMISRTPEVTCVVVDVSHEDPEVQFNWYVDGVEVHNAKTKPREEQFNSTFRVVSVLTVVHQDWLNGKEYKCKVSNKGLPAPIEKTISKTKGQPREPQVYTLPPSREEMTKNQVSLTCLVKGFYPSDIAVEWESNGQPENNYKTTPPMLDSDGSFFLYSKLTVDKSRWQQGNVFSCSVMHEALHNHYTQKSLSLSPGK
light: SGVDSQAVVTQEPSLTVSPGGTVTLTCRSSTGAVTTSNYANWFQQKPGQAPRTLIGGTNNRAPGVPARFSGSLLGGKAALTLSGAQPEDEAEYYCALWYSNHWVFGGGTKLTVLGQPKAAPSVTLFPPSSEELQANKATLVCLVSDFYPGAVTVAWKADGSPVKVGVETTKPSKQSNNKYAASSYLSLTPEQWKSHRSYSCRVTHEGSTVEKTVAPAECS
**Q.** Which “Notch signaling (luciferase activity)” value (Notch1 [3]) does the source give for B3 here?
**A.** significantly inhibited Notch signaling
